Source: US20190382477A1 (COMPUGEN, published 2019)

Tests used:
[1] = biological target: TIGIT on human CMV pp65-specific CD8+ T cells (human) (UniProt Q495A1); assay: flow cytometry on CMV pp65-specific CD8+ T cells, day 11, against an isotype control
[2] = biological target: T1, PVRIG on human CMV pp65-specific CD8+ T cells (human, UniProt Q6DKI7 41-326); assay: cell-based or functional assay
T1 sequence (looked up): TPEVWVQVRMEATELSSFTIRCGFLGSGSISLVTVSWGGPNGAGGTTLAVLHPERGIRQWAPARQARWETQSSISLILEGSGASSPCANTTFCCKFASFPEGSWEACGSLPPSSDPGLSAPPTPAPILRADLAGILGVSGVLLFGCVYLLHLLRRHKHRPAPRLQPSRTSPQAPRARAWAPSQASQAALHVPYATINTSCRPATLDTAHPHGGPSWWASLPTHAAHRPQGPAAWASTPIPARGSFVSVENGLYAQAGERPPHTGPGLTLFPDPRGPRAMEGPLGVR

[3] = biological target: T2, TIGIT on human CMV pp65-specific CD8+ T cells (human, UniProt Q495A1 22-244); assay: cell-based or functional assay
T2 sequence (looked up): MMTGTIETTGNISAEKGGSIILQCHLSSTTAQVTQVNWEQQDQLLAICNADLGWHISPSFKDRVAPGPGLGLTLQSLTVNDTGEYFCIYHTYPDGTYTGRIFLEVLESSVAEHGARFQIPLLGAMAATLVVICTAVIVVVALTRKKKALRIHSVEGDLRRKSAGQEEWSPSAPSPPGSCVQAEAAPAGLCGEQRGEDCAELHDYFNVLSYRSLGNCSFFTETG

[4] = biological target: T3, Human PVRIG-HIS (prepared in-house) (human, UniProt Q6DKI7 41-171, limits assumed); assay: SPR (ProteOn XPR 36, 22 C); BsAb captured on anti-human Fc, PVRIG-HIS as analyte, 1:1 fit
T3 construct: In-house protein; also called PVRIG-His (Compugen, lot 20170623); biotinylated PVRIG-His; not shown: His tag
T3 sequence (looked up): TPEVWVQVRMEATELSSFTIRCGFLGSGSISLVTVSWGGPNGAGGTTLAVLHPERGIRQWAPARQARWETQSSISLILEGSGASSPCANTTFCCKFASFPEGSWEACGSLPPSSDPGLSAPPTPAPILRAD

[5] = biological target: T4, Human TIGIT-HIS monomer (Sino Biological) (human, UniProt Q495A1 22-141); assay: SPR (ProteOn XPR 36, 22 C); BsAb captured on anti-human Fc, TIGIT-HIS monomer as analyte; kd/ka with kd held constant; rough estimate
T4 construct: Bought protein; also called TIGIT-His (Sino Biological cat #10917-H08H); biotinylated TIGIT-His; not shown: His tag
T4 sequence (looked up): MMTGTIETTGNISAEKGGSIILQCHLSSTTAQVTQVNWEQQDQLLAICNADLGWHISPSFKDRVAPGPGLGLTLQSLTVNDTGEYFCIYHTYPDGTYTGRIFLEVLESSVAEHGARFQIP

[6] = biological target: T4, Human TIGIT-HIS monomer (Sino …); assay: SPR (ProteOn XPR 36, 22 C); BsAb captured on anti-human Fc, TIGIT-HIS monomer as analyte, 1:1 fit with kd held constant; rough estimate
[7] = biological target: T4, Human TIGIT-HIS monomer (Sino …); assay: SPR (ProteOn XPR 36, 22 C); BsAb captured on anti-human Fc, TIGIT-HIS monomer as analyte; value fixed, not fitted, because too little dissociation was seen in 15 min

Molecule | MFIr (MFI of target antibody divided by MFI of control antibody) [1] | IFN-γ production EC50, donor 4 (both receptors blocked) [2] | IFN-γ production EC50, donor 72 (both receptors blocked) [2] | IFN-γ production EC50, donor 4 (both receptors blocked) [3] | IFN-γ production EC50, donor 72 (both receptors blocked) [3] | Kd [4] | koff [4] | kon [4] | Kd [5] | kon [6] | koff [7]
anti-TIGIT (clone: MBSA43)-allophycocyanin (APC; e-Bioscience) (antibody) | 4 fold | – | – | – | – | – | – | – | – | – | –
CHA.7.518.1.H4(S241P)/CPA.9.086 bispecific antibody (bispecific antibody, human IgG4 S228P, kappa, lambda, also called CHA.7.518.1.H4(S241P)/CPA.9.086 BsAb; TIGIT-PVRIG Bispecific antibody) heavy 1: QVQLVQSGAEVKKPGASVKVSCKASGYTFTDYNINWVRQAPGQGLEWMGYIYPYIGGSGYAQKFQGRVTMTRDTSTSTVYMELSSLRSEDTAVYYCAREDKTARNAMDYWGQGTLVTVSSASTKGPSVFPLAPCSRSTSESTAALGCLVKDYFPEPVTVSWNSGALTSGVHTFPAVLQSSGLYSLSSVVTVPSSSLGTKTYTCNVDHKPSNTKVDKRVESKYGPPCPPCPAPEFLGGPSVFLFPPKPKDTLMISRTPEVTCVVVDVSQEDPEVQFNWYVDGVEVHNAKTKPREEQFNSTYRVVSVLTVLHQDWLNGKEYKCKVSNKGLPSSIEKTISKAKGQPREPQVYTLPPCQDELTKNQVSLWCLVKGFYPSDIAVEWESNGQPENNYKTTPPVLDSDGSFFLYSRLTVDKSRWQEGNVFSCSVMHEALHNHYTQKSLSLSPGK light 1: DIQMTQSPSSLSASVGDRVTITCRVSENIYSNLAWYQQKPGKAPKLLIYEATNLAEGVPSRFSGSGSGTDFTLTISSLQPEDFATYYCQHFWGTPYTFGQGTKLEIKRTVAAPSVFIFPPSDEQLKSGTASVVCLLNNFYPREAKVQWKVDNALQSGNSQESVTEQDSKDSTYSLSSTLTLSKADYEKHKVYACEVTHQGLSSPVTKSFNRGEC heavy 2: EVQLVETGGGLIQPGRSLRLSCAASGFTFSSYAMHWVRQAPGKGLEWVAVISYAGEVKYYADSVKGRFTISRDNSKNTLYLQMNSLRAEDTAVYYCARDPLPLHYYGMDVWGQGTTVTVSSASGQPKAAPSVTLFPPSSEELQANKATLVCLISDFYPGAVTVAWKADSSPVKAGVETTTPSKQSNNKYAASSYLSLTPEQWKSHRSYSCQVTHEGSTVEKTVAPTECSESKYGPPCPPCPAPEFLGGPSVFLFPPKPKDTLMISRTPEVTCVVVDVSQEDPEVQFNWYVDGVEVHNAKTKPREEQFNSTYRVVSVLTVLHQDWLNGKEYKCKVSNKGLPSSIEKTISKAKGQPREPQVCTLPPSQDELTKNQVSLSCAVKGFYPSDIAVEWESNGQPENNYKTTPPVLDSDGSFFLVSRLTVDKSRWQEGNVFSCSVMHEALHNHYTQKSLSLSPGK light 2: QSALTQPRSASGNPGQRVTISCSGSSSNMGRRPVNWYQQIPGTAPKLLIYSQNQRPSGVPDRFSGSQSGTSASLTISGLQSEDEAEYFCAVWDDIGRVLQLGGGTQLAVLSSASTKGPSVFPLAPSSKSTSGGTAALGCLVKDYFPEPVTVSWNSGALTSGVHTFPAVLQSSGLYSLSSVVTVPSSSLGTQTYICNVNHKPSNTKVDKKVEPKSC | – | 0.36 nM | 0.53 nM | 0.36 nM | 0.53 nM | 0.187 nM | 0.00024 s⁻¹ | 1.3e+06 M⁻¹ s⁻¹ | ≤ 0.0026 nM | 3.9e+06 M⁻¹ s⁻¹ | ≤ 1e-05 s⁻¹
